Assay results taken from patent US20070269486A1, “Methods and Devices for Reducing Tissue Damage After Ischemic Injury” (priority 2005, published 2007).

Test: retention of insulin bioactivity when delivered in PLGA
Settings: delivered in poly(lactide-co-glycolide) (PLGA)
Source text: Insulin is a hormone which improves glycolic metabolism and ATP production. Insulin also may act as a vasodilator, an anti-inflammatory, and an antiplatelet agent. Thus, insulin acts by several mechanisms to decrease infarct size by reducing inflammation, slowing the rate of ischemic necrosis, decreasing circulating levels of FFA and myocardial FFA uptake, restoring myocardial glycogen stores and improving contractile function. The insulin can be human, non-human, or synthetic and can be complete or fragments. Preferably the insulin is a stable, short acting form which is resistant to radiation. Insulin in its crystalline form may be used for improved resistance to radiation. When the insulin is combined with a polymer an agent may be added to preserve bioactivity. […] For substantially longer administration periods, an antacid or other agent may be used to maintain a required pH for continued bioactivity from a PLGA matrix.
Protein or peptide drugs can be human, non-human, recombinant or synthetic and can be the full length native form or an active fragment thereof. Preferably the insulin is a stable, short acting form which is resistant to radiation. Insulin in its crystalline form may be used for improved resistance to radiation. When the insulin is combined with a polymer, an agent may be added to preserve bioactivity. […]

insulin
period over which bioactivity is retained: at least 24 hours
